This data set concerns the molecule itself. Nature of the data set: crystal structure; Ca2+-loaded mS100A7ΔC at 12 to 14 mg/ml in 20 mM Tris pH 8.0, 100 mM NaCl, 1% glycerol, 1 mM TCEP, 2 mM CaCl2; crystals in 0.1 M potassium thiocyanate, 20% PEG MME 2K, 0.01 M strontium chloride, 20 °C; space group P212121, 1.69 Å.

B1: mouse S100A7 tailless (mS100A7ΔC), deletion mutant mS100A7(1-100) (domain or fragment, UniProt Q6S5I3 1-100, looked up)
chain: MPDTPVEDSLFQIIHCFHHYAAREGDKETLSLEELKALLLDSVPRFMDTLGRRQPYYITELFRAADKNKDNQICFDEFLYILGKLVKDYHLQFHRQLCAH
notes: mouse S100A7 (S100A15a), UniProt Q6S5I3, residues 1-100: truncated at His100, lacks the last eight residues of the C-terminal tail; Gene synthesised and subcloned in pET11a (NdeI/BamHI); no tag is mentioned; Crystallised Ca2+-loaded; residues R95-H100 are poorly defined in the structure; also called murine S100A7ΔC; S100A15a; source: E. coli BL21 RIL, purified (supernatant heated to 85 °C, DEAE …)
As for B1, the binding result is “binds”.

For the origin of these results see paper PMC10598741, “Comparative analysis of the physical properties of murine and human S100A7: Insight into why zinc piracy is mediated by human but not murine S100A7” (The Journal of Biological Chemistry, 2023).
